The values that follow come from article PMC12502808, “Catalytic His-loop flexibility drives high activity in hyperthermophilic esterase EstE1 while preserving structural stability” (Microbiology Spectrum, 2025).

Residue numbers refer to the chain shown, from its start. Names may count otherwise.

Series [1] relates to CC(=O)Oc1ccc([N+](=O)[O-])cc1. Put plainly: purified protein. In kind it is biochemical, Pseudomonas sp. ECU1011. Particulars: 100 mM Tris-HCl, 100 mM NaCl, pH 7.5, optimal temperature (45-50°C for WT, 30°C for mutants).
Series [2] deals with EstE1 wild type (hyperthermophilic esterase). Put plainly: SEC; Superdex 200 column equilibrated with 50 mM sodium phosphate, 150 mM NaCl, pH 7.0; molecular weight determination of the purified protein. In general terms: SEC sorts molecules by how far they enter the pores of the column.
Substrate in series [3]: CC(=O)Oc1ccc([N+](=O)[O-])cc1
Put plainly: purified protein. In kind it is biochemical, Pseudomonas sp. ECU1011. Particulars: 100 mM Tris-HCl, 100 mM NaCl, pH 7.5, optimal temperature (45-50°C).

Substrate in series [4]: CCCCCC(=O)Oc1ccc([N+](=O)[O-])cc1
Kind of series: purified protein. In kind it is biochemical, uncultured archaeon. To be noted: 100 mM Tris-HCl, 100 mM NaCl, pH 7.5, optimal temperature 70°C.

In the case of rPPE (Pseudomonas sp. ECU1011; D287E), in series [1], the Km is 6 ± 1 µM, the kcat was 2.1 ± 0.1 s⁻¹ and the kcat/Km stood at 330000 ± 20000 M⁻¹ s⁻¹.

In the case of rPPE (Pseudomonas sp. ECU1011; D287G), in series [1], the Michaelis constant (Km) is 114 ± 2 µM, the turnover number (kcat) stood at 13 ± 1 s⁻¹ and the catalytic efficiency (kcat/Km) was 110000 ± 10000 M⁻¹ s⁻¹.

“EstE1 wild type (hyperthermophilic esterase) (enzyme)” had a stoichiometry N in series [2] of 2.

B1: rPPE (Pseudomonas sp. ECU1011) (protein)
chain: GSPGVEQHTKAFLEALEQGGGKPLEQLSPKDARAVLTGAQASVKVDLSGIEVKERTIQANGQSIKLQVVRPANVKGELPVFMFFHGGGWVLGDFPTHQRLIRDLVVGSGAVAVYVDYTPSPESHYPTAINQAYAATQWVAEHGKEIGVDGKRLAVAGNSVGGNMAAVVALKAKEAGTPALRFQLLLWPVTDASFETASYKQFADGHFLTTGMMKWFWDNYTTDAKAREQIYASPLRASSEQLKGLPPALVQTAEFDVLRDEGEAYARKLNAAGVTVTSVRYNGMIHDYGLLNPLSQVPAVKAAMRQAGTELKVHLQ
In the case of B1, in series [3], the Michaelis constant (Km) came to 33 ± 1 µM, the kcat was 2 ± 0.1 s⁻¹ and the kcat/Km was 60000 ± 10000 M⁻¹ s⁻¹.

B2: EstE1 (uncultured archaeon) (protein)
chain: MPLDPQIKPILERIRALSIAASPQELRRQVEEQSRLLTAAVQEPIAETRDVHIPVSGGSIRARVYFPKKAAGLPAVLYYHGGGFVFGSIETHDHICRRLSRLSDSVVVSVDYRLAPEYKFPTAVEDAYAALKWVADRADELGVDPDRIAVAGDSAGGNLAAVVSILDRNSGEKLVKKQVLIYPVVNMTGVPTASLVEFGVAETTSLPIELMVWFGRQYLKRPEEAYDFKASPLLADLGGLPPALVVTAEYDPLRDEGELYAYKMKASGSRAVAVRFAGMVHGFVSFYPFVDAGREALDLAAASIRSGLQPS
Consider B2, for which, in series [4], the Km worked out at 1520 ± 17 µM, the kcat amounted to 2900 ± 1 s⁻¹ and the kcat/Km was found to be 1.91e+06 ± 20000 M⁻¹ s⁻¹.

B3: EstE1 (uncultured archaeon; G282Q) (protein)
chain: B2 chain with G282Q
Take B3: in series [4], the Michaelis constant (Km) worked out at 745 ± 40 µM, the turnover number (kcat) was found to be 950 ± 27 s⁻¹ and the specificity constant (kcat/Km) was 1.28e+06 ± 30000 M⁻¹ s⁻¹.

B4: EstE1 (uncultured archaeon; G282N) (protein)
chain: B2 chain with G282N
For the molecule B4, in series [4], the Km worked out at 1330 ± 79 µM, the catalytic constant (kcat) turned out to be 1980 ± 84 s⁻¹ and the kcat/Km is 1.49e+06 ± 30000 M⁻¹ s⁻¹.

One may read the Km as the substrate concentration at which the rate is half of its maximum. As a reminder, the kcat is the number of substrate molecules converted per active site and unit of time at saturation. By kcat/Km is commonly meant the turnover number divided by the Michaelis constant. In general, stoichiometry N refers to the number of molecules, sites or subunits per partner or assembly.
